Reference: patent publication US20230074436A1 (DENALI THERAPEUTICS, published 2023)
Positions count from the first letter of the chain named. Read-outs that look alike come from different tables or passages of the source.

B1: 16F3 (antibody, IgG2a, V domains shown)
VH: AVQLVESGGGLVQPKESLKISCAASGFTFSNGAMNWVRQAPGKGLEWVARIRTKPNNYATYYADSVKGRFTISRDDSKSMVYLQMDDLKTEDTAMYYCTADGATPFAYWGQGTLVTVSS
VL: DVVLTQTPPTLSATIGQSVSISCRSSQSLLHSNGNTYLHWLLQRPGQSPQLLIYLVSRLESGVPNRFSGSGSGTDFTLKISGVEAEDLGVYYCVQGTHAPFTFGSGTKLEIK
notes: also called clone 16F3
B2: 18B4 (antibody, IgG2b, V domains shown)
VH: EVQLVESGGGLVQPGRSLKLSCAASGFTFSSFAMAWVRQAPKKGLEWVATITSGGSKTYYPDSVKGRFTISRDNAKSTLYLQMDSLRSEDTATYYCAKGYFDYWGQGVMVTVSS
VL: B1 VL with F101L
notes: also called clone 18B4
B3: 22E11 (antibody, IgG1, V domains shown)
VH: AVQLVESGGGLVQPKESLKISCAASGFTFSTAAMYWVRQAPGKGLEWVTRIRTKPNNYATYYADSVKGRFTISRDDSKSMVYLQMDNLKTEDTAMYYCTADYYDGTPFAYWGQGTLVTVSS
VL: AVVMTQTPVSLSVSLGGQVSISCRSSQSLVHNNGITYLSWYLQKPGQSPQLPIYKVSNRFSGFSDRFSGGGSGTDFTLKISRVEPDDLGLYYCGQGTQYPYTFGAGTKLELK
notes: also called clone 22E11
B4: 1H5 (antibody, rat IgG2b, V domains shown)
VH: AVQLVESGGGLVQPKESLKISCAASGFTFSDAAMYWVRQAPGKGLELVARIRTKPNNYATYYADSVKGRFTISRDDSKSMVYLQMGNLKTEDTAMYYCSADFHYFDYWGQGVMVTVSS
VL: DIQMTQSPSVLSASVGDRVTLSCKAGQNINKNLDWYQQKLGEAPKLLISFTNNLQTGVPSRFSGSGSGSDYTLTISSLQPEDVATYYCYQYNSGWTFGGGTKLELK
notes: also called clone 1H5

Legend:
[1] = molecular target: T1, alpha-synuclein peptide 1-61 (human); experiment: ELISA, plate coated with the peptide or protein, antibody titrated, anti-rat HRP, A450
T1 construct: synthetic peptide coated on plate
Protocol: (§1) 96-well Nunc plates were coated with 1 pg/mL of the indicated synthetic peptide in PBS 50 μL/well overnight. The plates were washed three times with PBST, then blocked with 150 μL of 3% BSA in PBS for 1 hour. Purified antibody was diluted by serial dilution methods, from 10 pg/mL to 0.6 ng/ml, and 50 μL of the antibody solution was added to the peptide-coated wells. The plates were incubated for 1 hour at room temperature, then washed three times with PBST. Secondary detection antibody, goat anti-rat HRP (obtained from Southern Biotech) 1:5,000 diluted in BSA-PBS, was added to a concentration of 50 μL/well. Plates were incubated for one hour and washed three times with PBST. Plates were then developed with 50 μL/well of TMB substrate (obtained from Thermo Fisher) and quenched with 50 μL/well of 1 N sulfuric acid. The signal was quantified on a BioTek® plate reader at A450.

[2] = molecular target: T2, alpha-synuclein peptide 95-140 (human); experiment: as above
T2 construct: synthetic peptide coated on plate
Protocol: as §1

[3] = molecular target: T1, alpha-synuclein peptide 1-61; experiment: peptide ELISA
Protocol: as §1

[4] = molecular target: T2, alpha-synuclein peptide 95-140; experiment: peptide ELISA, coated fragment
Protocol: as §1

[5] = molecular target: T3, rat alpha-synuclein (rat, UniProt P37377 1-140); experiment: direct ELISA, plate coated with 1 µg/mL recombinant rat alpha-synuclein, antibody titrated, anti-rat HRP, A450
Protocol: (§2) 96-well Nunc plates were coated with 50 μL of recombinant human, mouse, or rat alpha-synuclein at a concentration of 1 μg/mL in PBS at 4° C. overnight. The plates were then washed three times with PBST and blocked with PBS containing 3% BSA at room temperature for 1 hour. Purified antibody was diluted by serial dilution methods, from 10 μg/mL to 0.6 ng/mL, and 50 μL of the antibody solution was added to the alpha-synuclein-coated wells. The plates were incubated for 1 hour at room temperature, then washed three times with PBST. Secondary detection antibody (goat anti-rat HRP (obtained from Southern Biotech)) was added 50 μL/well, 1:5,000 diluted in BSA-PBS solution. Plates were incubated for 1 hour at room temperature, then washed three times with PBST. Plates were subsequently developed with 50 μL/well of TMB substrate (Thermo Fisher) and quenched with 50 μL/well of 1 N sulfuric acid. The signal was quantified on a BioTek® plate reader at A450.

[6] = molecular target: T4, mouse alpha-synuclein (mouse, UniProt O55042 1-140); experiment: direct ELISA, plate coated with 1 µg/mL recombinant mouse alpha-synuclein, antibody titrated, anti-rat HRP, A450
Protocol: as §2

[7] = molecular target: T4, mouse alpha-synuclein; experiment: ELISA, coated mouse alpha-synuclein
Protocol: as §2

[8] = molecular target: T5, human alpha-synuclein monomer (human, UniProt P37840 1-140); experiment: direct ELISA, plate coated with 1 µg/mL recombinant human alpha-synuclein, antibody titrated, anti-rat HRP, A450
Protocol: as §2

[9] = molecular target: T5, human alpha-synuclein monomer; experiment: ELISA, coated human alpha-synuclein
[10] = molecular target: human alpha-synuclein pre-formed fibrils (human, UniProt P37840 1-140); experiment: competition ELISA: fibrils titrated in solution against 0.6 nM antibody, free antibody read on aSyn-coated plate
Protocol: Purified antibody was probed with different concentrations of alpha-synuclein fibrils in solution, and the levels of unbound antibody were measured by ELISA analysis. In this experiment, 0.6 nM (0.1 μg/mL) of purified antibody was dissolved in phosphate-buffered saline (PBS) solution. […] The mixtures were gently shaken at room temperature for 1 hour to reach equilibrium. After that, these samples were transferred to an alpha-synuclein protein-coated ELISA plate and incubated for 5 minutes. During this short incubation, antibody that was not associated to antigen in the previous solution could instead bind onto the plate, and thus be quantified using a standard ELISA technique. By this means, it was possible to determine the amount of free antibody in the initial mixture with alpha-synuclein fibrils at indicated concentrations.

[11] = molecular target: human alpha-synuclein oligomers (human, UniProt P37840 1-140); experiment: competition ELISA: oligomers titrated in solution against 0.6 nM antibody, free antibody read on aSyn-coated plate
Protocol: To measure the binding affinities of select antibodies toward oligomeric alpha-synuclein protein, purified antibodies were probed with different concentrations of human alpha-synuclein oligomers in solution, and the levels of unbound antibody were measured by ELISA analysis. In this experiment, 0.6 nM (0.1 pg/mL) of purified antibody was dissolved in phosphate-buffered saline (PBS) solution. […] The mixtures were gently shaken at room temperature for 1 hour to reach equilibrium. After that, these samples were transferred to an alpha-synuclein protein-coated ELISA plate, and antibody not bound to antigen in the previous solution was detected by direct ELISA.

[12] = molecular target: T5, human alpha-synuclein monomer; experiment: direct ELISA on coated antigen;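 further: plates coated with recombinant human, mouse or rat alpha-synuclein, purified antibody titrated 10 µg/mL down to 0.6 ng/mL for 1 h, bound antibody detected by anti-rat HRP with TMB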
Protocol: as §2

[13] = molecular target: T4, mouse alpha-synuclein; experiment: direct ELISA on coated antigen;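 further: plates coated with recombinant human, mouse or rat alpha-synuclein, purified antibody titrated 10 µg/mL down to 0.6 ng/mL for 1 h, bound antibody detected by anti-rat HRP with TMB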
Protocol: as §2

[14] = molecular target: T3, rat alpha-synuclein; experiment: direct ELISA on coated antigen;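 further: plates coated with recombinant human, mouse or rat alpha-synuclein, purified antibody titrated 10 µg/mL down to 0.6 ng/mL for 1 h, bound antibody detected by anti-rat HRP with TMB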
Protocol: as §2

[15] = molecular target: T5, human alpha-synuclein monomer; experiment: ELISA, plate coated with the peptide or protein, antibody titrated, anti-rat HRP, A450
Protocol: as §1

[16] = molecular target: T6, alpha-synuclein peptide 1-95 (human); experiment: as above
T6 construct: synthetic peptide coated on plate
Protocol: as §1

[17] = molecular target: T4, mouse alpha-synuclein; experiment: as above
Protocol: as §1

[18] = molecular target: T1, alpha-synuclein peptide 1-61; experiment: as above; remark: listed apart in the source
Protocol: as §1

[19] = molecular target: T7, alpha-synuclein peptide 61-140 (human); experiment: as above
T7 construct: synthetic peptide coated on plate
Protocol: as §1

[20] = molecular target: T2, alpha-synuclein peptide 95-140; experiment: as above; remark: listed apart in the source
Protocol: as §1

[21] = molecular target: T6, alpha-synuclein peptide 1-95; experiment: peptide ELISA
Protocol: as §1

[22] = molecular target: alpha-synuclein peptide 1-112 (human); experiment: peptide ELISA, coated fragment
Protocol: as §1

[23] = molecular target: T7, alpha-synuclein peptide 61-140; experiment: peptide ELISA, coated fragment
Protocol: as §1

[24] = molecular target: T6, alpha-synuclein peptide 1-95; experiment: ELISA, plate coated with the peptide or protein, antibody titrated, anti-rat HRP, A450; remark: listed apart in the source
Protocol: as §1

[25] = molecular target: T4, mouse alpha-synuclein; experiment: as above; remark: listed apart in the source
Protocol: as §1

[26] = molecular target: T1, alpha-synuclein peptide 1-61; experiment: as above; remark: listed apart in the source
Protocol: as §1

[27] = molecular target: alpha-synuclein peptide 1-112 (human); experiment: as above
Protocol: as §1

[28] = molecular target: alpha-synuclein phosphorylated at serine 129 (human, UniProt P37840 1-140); experiment: SPR (Biacore), antibody captured, p129-Syn injected
Protocol: (§3) Anti-mouse Fc antibody (obtained from GE Healthcare) was immobilized on the surface of a CM5 chip (obtained from GE Healthcare) through amine-coupling to reach about 6,000 to 8,000 response units (RU). The surface was activated by injection of a mixture of 1-ethyl-3-(3-dimethylaminopropyl)-carbodiimide (EDC) and N-hydroxysuccinimide (NETS), both obtained from GE Healthcare, for 7 minutes at room temperature. […] Both injections were done at room temperature.
(§4) Purified rat anti alpha-synuclein antibody (10 μg/mL) was injected at room temperature and captured to reach 1,000 to 2,000 RU. […] Sensorgrams were fitted using a 1:1 Langmuir model to estimate kₒₙ and koff.

[29] = molecular target: T5, human alpha-synuclein monomer; experiment: ELISA, plate coated with the peptide or protein, antibody titrated, anti-rat HRP, A450; remark: listed apart in the source
Protocol: as §1

[30] = molecular target: T6, alpha-synuclein peptide 1-95; experiment: as above; remark: listed apart in the source
Protocol: as §1

[31] = molecular target: T1, alpha-synuclein peptide 1-61; experiment: as above; remark: listed apart in the source
Protocol: as §1

[32] = molecular target: alpha-synuclein peptide 1-112 (human); experiment: as above; remark: listed apart in the source
Protocol: as §1

[33] = molecular target: T7, alpha-synuclein peptide 61-140; experiment: as above; remark: listed apart in the source
Protocol: as §1

[34] = molecular target: T2, alpha-synuclein peptide 95-140; experiment: as above; remark: listed apart in the source
Protocol: as §1

[35] = molecular target: T8, beta-synuclein protein (human, UniProt Q16143 1-134); experiment: ELISA on coated synuclein, 1 ug/mL
T8 construct: species read from 'recombinant human alpha-synuclein protein, beta-synuclein protein, and gamma-synuclein protein'
Protocol: (§5) Binding to different synuclein species was tested using a method similar to the ELISA format described above. Briefly, recombinant human alpha-synuclein protein, beta-synuclein protein, and gamma-synuclein protein was coated onto 96-well Nunc plates at 1 μg/mL. The plates were washed with PBST and blocked with 150 μL of 3% BSA in PBS. The serial dilutions of purified antibodies were applied onto the plate, and the associated antibody was detected with goat anti-rat HRP secondary antibody.

[36] = molecular target: T9, gamma-synuclein protein (human, UniProt O76070 1-127); experiment: ELISA on coated synuclein, 1 ug/mL
T9 construct: species read from 'recombinant human alpha-synuclein protein, beta-synuclein protein, and gamma-synuclein protein'
Protocol: as §5

[37] = molecular target: alpha-synuclein peptide 1-112 (human); experiment: peptide ELISA
Protocol: as §1

[38] = molecular target: T5, human alpha-synuclein monomer; experiment: SPR (Biacore), antibody captured, monomer injected, 1:1 fit
Protocol: as §3, §4

Row | Binder | antibody concentration at which ELISA is positive [3] | antibody concentration at which ELISA is positive [4] | EC50 (read off the curve) [6] | antibody concentration at which ELISA is positive [7] | EC50 (read off the curve) [8] | antibody concentration at which ELISA is positive [9] | IC50 [10] | IC50 [11] | Bmax (O.D. at 450 nm) [12] | EC50 [12] | EC50 [13] | Bmax (O.D. at 450 nm) [14] | EC50 [14] | antibody concentration at which ELISA is positive [21] | antibody concentration at which ELISA is positive [22] | antibody concentration at which ELISA is positive [23] | Bmax (O.D. at 450 nm) [13] | also measured
1 | B1 | > 2600 ng/mL | < 40 ng/mL | – | – | – | – | – | – | – | – | – | – | – | – | – | – | – | binding result [1]: no binding (tested: 10 µg/ml (1 on the log axis)); EC50 (read off the curve) [2]: ~0.3 µg/mL
2 | B2 | > 2600 ng/mL | < 40 ng/mL | ~0.08 µg/mL | 40 to 160 ng/mL | ~0.06 µg/mL | < 40 ng/mL | 85.7 nM | 37.6 nM | 1.36 OD | 0.05 nM | 0.08 nM | 1.21 OD | 0.3 nM | > 2600 ng/mL | 160 to 640 ng/mL | < 40 ng/mL | – | EC50 (read off the curve) [5]: ~0.4 µg/mL; EC50 (read off the curve) [15]: ~0.06 µg/mL; binding result [16]: no binding (tested: 10 µg/ml (1 on the log axis)); EC50 (read off the curve) [17]: ~0.08 µg/mL; binding result [18]: no binding (tested: 10 µg/ml (1 on the log axis)); EC50 (read off the curve) [19]: ~0.08 µg/mL; EC50 (read off the curve) [20]: ~0.07 µg/mL
3 | B3 | > 2600 ng/mL | < 40 ng/mL | ~0.3 µg/mL | 40 to 160 ng/mL | – | < 40 ng/mL | 28.1 nM | 6.96 nM | 1.05 OD | 0.4 nM | 0.26 nM | 0.5 OD | 1 nM | > 2600 ng/mL | 160 to 640 ng/mL | < 40 ng/mL | 0.58 OD | binding result [24]: no binding (tested: 10 µg/ml (1 on the log axis)); EC50 (read off the curve) [25]: ~0.3 µg/mL; binding result [26]: no binding (tested: 10 µg/ml (1 on the log axis)); EC50 (read off the curve) [27]: ~0.3 µg/mL
4 | B4 | > 2600 ng/mL | < 40 ng/mL | – | 640 to 2600 ng/mL | ~0.2 µg/mL | < 40 ng/mL | 5.86 nM | 30.7 nM | 1.14 OD | 0.15 nM | 5.86 nM | 0.2 OD | 2.97 nM | > 2600 ng/mL | – | < 40 ng/mL | 0.16 OD | Kd [28]: 23.7 nM; koff [28]: 0.00113 s⁻¹; kon [28]: 47500 M⁻¹ s⁻¹; EC50 (read off the curve) [29]: ~0.2 µg/mL; binding result [30]: no binding (tested: 10 µg/ml (1 on the log axis)); binding result [31]: no binding (tested: 10 µg/ml (1 on the log axis)); binding result [32]: no binding (tested: 10 µg/ml (1 on the log axis)); EC50 (read off the curve) [33]: ~0.2 µg/mL; EC50 (read off the curve) [34]: ~0.3 µg/mL; binding result [35]: no binding; binding result [36]: no binding; antibody concentration at which ELISA is positive [37]: > 2600 ng/mL; Kd [38]: 16.2 nM; koff [38]: 0.00169 s⁻¹; kon [38]: 104000 M⁻¹ s⁻¹
